Source: patent publication US20100203046A1

Assays:
[1] = target: human FcγRIII (CD16), CD16a (F158), on CD16-transfected Jurkat cells (human) (UniProt P08637); assay: summary of Table 5 assays
[2] = target: human FcγRIII (CD16), CD16a (F158), on CD16-transfected Jurkat cells (human) (UniProt P08637); assay: CD16 bridging assay, purified

Sequence of human FcγRIII (CD16), CD16a (F158), on CD16-transfected Jurkat cells (human) (P08637 17-254): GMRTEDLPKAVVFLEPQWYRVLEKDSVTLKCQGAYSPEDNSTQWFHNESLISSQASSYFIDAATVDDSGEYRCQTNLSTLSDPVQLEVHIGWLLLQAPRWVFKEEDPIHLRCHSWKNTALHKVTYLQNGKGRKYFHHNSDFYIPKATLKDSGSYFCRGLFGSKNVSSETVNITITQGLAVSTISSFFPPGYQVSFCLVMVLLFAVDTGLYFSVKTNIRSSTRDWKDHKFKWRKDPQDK

In the case of chCB6-huIgG1 Y296S (antibody), the fold decrease in binding vs WT [1] is reported as > 10 fold and the fold decrease in binding vs WT [2] is reported as 20 fold.
